Measured values from patent US20140017269A1 (CHILDREN S HOSPITAL MEDICAL CENTER, published 2014).

Legend:
[1] = biological target: the molecule itself; experiment: gel filtration; self-association
[2] = biological target: the molecule itself; experiment: gel filtration and EM; self-association
[3] = biological target: the molecule itself; experiment: form of the immunogen as described; self-association
[4] = biological target: the molecule itself; experiment: gel filtration; self-association; remark: listed apart in the source
[5] = biological target: the molecule itself; experiment: gel filtration chromatography (self-association)

B1: NoV P^--VP8* (C-end) protein (other)
chain: SRTKPFTVPILTVEEMSNSRFPIPLEKLYTGPSSAFVVQPQNGRCTTDGVLLGTTQLSAVNICTFRGDVTHIAGSHDYIMNLASQNWNNYDPTEEIPAPLGTPDFVGKIQGMLTQTTREDGSTRAHKATVSTGSVHFTPKLGSVQYTTDTNNDLQTGQNTKFTPVGVIQDGNNHQNEPQQWVLPNYSGRTGHNVHLAPAVAPTFPGEQLLFFRSTMPGCSGYPNMNLDCLLPQEWVQHFYQEAAPAQSDVALLRFVNPDTGRVLFECKLHKSGYVTVAHTGPHDLVIPPNGYFRFDSWVNQFYTLAPMGNGAGRGGGGGGGGGGGGLDGPYQPTTFTPPTDYWILINSNTNGVVYESTNNSDFWTAVIAVEPHVNPVDRQYNVFGENKQFNVRNDSDKWKFLEMFRGSSQNDFYNRRTLTSDTRLVGILKYGGRIWTFHGETPRATTDSSNTANLNGISITIHSEFYIIPRSQESKCNEYINNGL
notes: Thrombin-cleaved product; ~52 kDa monomer, ~100 kDa dimer; also called free NoV P^--VP8* dimer
binding result [1]: binds

B2: NoV P^- (387)-NoV P^- (207) fusion protein (other)
chain: SRTKPFTVPILTVEEMSNSRFPIPLEKLYTGPSSAFVVQPQNGRCTTDGVLLGTTQLSAVNICTFRGDVTHIAGSHDYIMNLASQNWNNYDPTEEIPAPLGTPDFVGKIQGMLTQTTREDGSTRAHKATVSTGSVHFTPKLGSVQYTTDTNNDLQTGQNTKFTPVGVIQDGNNHQNEPQQWVLPNYSGRTGHNVHLAPAVAPTFPGEQLLFFRSTMPGCSGYPNMNLDCLLPQEWVQHFYQEAAPAQSDVALLRFVNPDTGRVLFECKLHKSGYVTVAHTGPHDLVIPPNGYFRFDSWVNQFYTLAPMGNGAGRGGGGGGGGGGGGSKTKAFTIPVLKISEMTNSRFPVPVDQMYTSRSEGIVVQPQNGRATIDGELLGTTLVSPVSVCNFKGNLQAEVPGQHQLYQLQLTNLDGSPIDPTDDTPGPLGCPDFTGLLYGVASQRGPGDATRAHEARIDTGSDTFAPKIGQVRFYSTSSDFETNQPTHFTPIGIYIEGNSSDFNQWQLPRYGGHLANNNHLAPAVSPLFPGEQILFFRSFIPGASGHTNGEMDCLLPQEFVQHFYQEAATARSEVALLRFVNPDTGRALFESKLHKQGFMTIASSGDHPIIMPTNGYFRFEAWVNQFYSLAPVGTGSGR
notes: also called NoV P^-(GII.4)-NoV P^-(GII.9)
binding result [2]: binds

B3: NoV P domain-RGDCFC (NoV P^+) of Norovirus VA387 (GII.4) (other)
chain: SRTKPFTVPILTVEEMSNSRFPIPLEKLYTGPSSAFVVQPQNGRCTTDGVLLGTTQLSAVNICTFRGDVTHIAGSHDYIMNLASQNWNNYDPTEEIPAPLGTPDFVGKIQGMLTQTTREDGSTRAHKATVSTGSVHFTPKLGSVQYTTDTNNDLQTGQNTKFTPVGVIQDGNNHQNEPQQWVLPNYSGRTGHNVHLAPAVAPTFPGEQLLFFRSTMPGCSGYPNMNLDCLLPQEWVQHFYQEAAPAQSDVALLRFVNPDTGRVLFECKLHKSGYVTVAHTGPHDLVIPPNGYFRFDSWVNQFYTLAPMGNGAGRRRALCDCRGDCFC
notes: Mainly the 24mer P particle (~830 kDa), with a low portion (~5%) of P dimer; also called P-RGDCFC
binding result [2]: binds

B4: NoV P^- (387)-NoV P^- (115) fusion protein (other)
chain: SRTKPFTVPILTVEEMSNSRFPIPLEKLYTGPSSAFVVQPQNGRCTTDGVLLGTTQLSAVNICTFRGDVTHIAGSHDYIMNLASQNWNNYDPTEEIPAPLGTPDFVGKIQGMLTQTTREDGSTRAHKATVSTGSVHFTPKLGSVQYTTDTNNDLQTGQNTKFTPVGVIQDGNNHQNEPQQWVLPNYSGRTGHNVHLAPAVAPTFPGEQLLFFRSTMPGCSGYPNMNLDCLLPQEWVQHFYQEAAPAQSDVALLRFVNPDTGRVLFECKLHKSGYVTVAHTGPHDLVIPPNGYFRFDSWVNQFYTLAPMGNGAGRGGGGGGGGGGGGQKTKPFSVPNLPLNTLSNSRVPSLIRSMMVSRDHGQMVQFQNGRVTLDGQLQGTTPTSASQLCKIRGSVFHANGGNGYTLTELDGSPYHAFESPAPIGFPDLGECDWHMEASPTTQFDTGDVIKQINVKQEAAFAPHLGTIQADGLSDVSVNTNMIAKLGWVSPASDGHRGNVDPWVIPRYGSTLTEAAQLAPPIYPPGFGEAIVFFMSDFPIAHGANGLSVPCTIPQEFVTHFVNEQAPTRGEAALLHYLDPDTHRNLGEFKLYPEGFMTCVPNSSGTGPQTLPINGVFVFVSWVSRFYQLKPVGTAGPARSLGI
binding result [3]: binds

B5: HEV P domain (protruding domain of hepatitis E virus) (other)
chain: TPSPAPSRPFSVLRANDVLWLSLTAAEYDQTTYGSSTNPMYVSDTVTFVNVATGAQAVARSLDWSKVTLDGRPLTTIQQYSKTFYVLPLRGKLSFWEASTTKAGYPYNYNTTASDQILIENAAGHRVAISTYTTSLGAGPTSISAVGVLAPHSALAALEDTVDYPCDCRGDCFC
notes: released from GST-HEV P by thrombin; ~19 kDa monomer, ~38 kDa dimer
binding result [4]: binds

B6: NoV P polypeptide (NoV P^-) of Norovirus VA387 (GII.4) (other)
chain: SRTKPFTVPILTVEEMSNSRFPIPLEKLYTGPSSAFVVQPQNGRCTTDGVLLGTTQLSAVNICTFRGDVTHIAGSHDYIMNLASQNWNNYDPTEEIPAPLGTPDFVGKIQGMLTQTTREDGSTRAHKATVSTGSVHFTPKLGSVQYTTDTNNDLQTGQNTKFTPVGVIQDGNNHQNEPQQWVLPNYSGRTGHNVHLAPAVAPTFPGEQLLFFRSTMPGCSGYPNMNLDCLLPQEWVQHFYQEAAPAQSDVALLRFVNPDTGRVLFECKLHKSGYVTVAHTGPHDLVIPPNGYFRFDSWVNQFYTLAPMGNGAGR
notes: ~34.5 kDa monomer, ~69 kDa dimer; also called free NoV P^- dimer
binding result [4]: binds

B7: Rotavirus VP8* (other)
chain: LDGPYQPTTFTPPTDYWILINSNTNGVVYESTNNSDFWTAVIAVEPHVNPVDRQYNVFGENKQFNVRNDSDKWKFLEMFRGSSQNDFYNRRTLTSDTRLVGILKYGGRIWTFHGETPRATTDSSNTANLNGISITIHSEFYIIPRSQESKCNEYINNGL
notes: ~18 kDa monomer; also called free VP8* monomer
binding result [5]: no binding
